For 1 molecule, IC50 of TGF-βRII-Fc against TGF-β2 (480 pg/mL) signalling in A549 cells with the (CAGA)12 luciferase reporter results are on record in publication PMC9714796.

This experiment concerns the target T1, Transforming growth factor-β2 (TGF-β2).
T1 sequence (P61812 303-414, species assumed, looked up): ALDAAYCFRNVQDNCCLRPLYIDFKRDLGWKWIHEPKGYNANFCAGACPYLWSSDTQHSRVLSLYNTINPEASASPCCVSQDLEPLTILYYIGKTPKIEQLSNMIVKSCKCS

Bounds are passed on as bounds.

B1: TGF-βRII-Fc (muTGFbRII-mFc) (Fc fusion)
chain: IPPHVPKSVNSDVMASDNGGAVKLPQLCKFCDVRLSTCDNQKSCMSNCSITAICEKPHEVCVAVWRKNDKNITLETVCHDPKLTYHGFTLEDAASPKCVMKEKKRAGETFFMCACNMEECNDYIIFSEEYTTSSPDLLLVIIQ
Turning to B1, the IC50 of TGF-βRII-Fc against TGF-β2 (480 pg/mL) signalling in A549 cells with the (CAGA)12 luciferase reporter is > 88000.
